Source: the supplement of paper PMC10567573

B1: MGC16075 (parent)
chain: AGSRQALSFEVPPCNYDPEKWIQ
B2: EHMT1 (parent)
chain: FHKDCASRVNNASYCPHCGEESSK

Variants of: B1
Assay: protein stability index of a GFP-peptide fusion (GPS, HEK-293T) (PSI 1-6); higher = more stable
Conditions: c terminus: native
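Further: lentivirally expressed fusions sorted by FACS into six bins by GFP to DsRed ratio, PSI derived from sequencing read proportions per bin multiplied by bin number.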

Protein stability index of substitutions, site by site:
W21: N 2.42; H 2.32; L 2.17; K 3.53
E10: S 2.44; G 1.83; Y 1.75; I 2.29
R4: I 2.7; C 1.57; D 2.41; T 2.14; K 1.72; G 1.39; L 2.53; A 2.66; M 3.08; P 2.77
P13: V 2.19; L 1.62; F 2.1; M 1.3; A 1.43; G 2.1; W 1.98; T 1.99
I22: C 4.56; E 4.4; L 3.92; W 3.22; Y 2.85
D17: R 2.15; C 1.29; Q 2.18; I 2.17; E 2.07; V 2
S8: L 1.98; V 1.54; K 2.09
E19: T 1.97
Q5: K 1.3; R 1.84
A6: T 1.53; E 1.92; D 2.91
Y16: C 2.17; H 1.46; D 2.52; P 2.22; W 1.47; E 2.64
L7: D 2.45; P 1.26; E 3.23; V 1.78
Q23: Y 2; H 2.55; F 2.23
F9: E 3.49; Q 3.05; N 3.75; R 2.78; K 3.19; L 2.48
V11: Y 3.25; D 2.93; M 2.11
A1: G 1.68; D 2.9; M 1.25; K 2.18
N15: C 2.23; I 2.06; S 1.35; P 2.68; H 1.28
G2: K 2; N 2.37; A 1.77; M 2.88; I 2.37; S 1.75; Q 2.2; L 2.27
C14: T 2.2; F 1.5; S 2.56; K 1.64; G 1.42; Y 2.23
K20: V 1.96; Y 3.78; A 3.93; I 2.46; Q 4.32; N 3.71; M 2.69
P12: D 1.97; T 1.99; I 1.17
P18: I 1.92; G 2.41; H 1.84; D 1.93; Q 2.03; N 2.15; E 2.79; S 1.78
S3: L 1.93; V 1.27; E 1.28; D 1.86; R 1.57

Variants of: B2
Assay: as above
Conditions: c terminus: a fixed tail appended

Protein stability index, by site and new letter:
A6: D 3.52; I 3.23; W 1.96; R 2.97; E 3.6; K 3.53; G 3.59; M 3.07; H 3.34; P 3.83; L 2.85; Y 2.26; N 3.41; Q 4.04; F 2.28; V 3.5; S 3.52; C 4.35; T 3.6
F1: C 5.43; N 4.87; P 4.43; H 5.16; T 4.43; A 4.71; K 4.62; W 4.02; D 4.77; V 4.78; I 4.55; L 4.78; R 4.59; M 4.9; G 5.15; E 5.17; S 4.77; Q 5.09; Y 3.85
D4: W 1.96; T 2.47; M 1.83; L 2; P 1.88; I 2.56; Y 2.02; V 2.41; E 3.55; R 2.3; Q 2.73; G 2.56; C 4.12; N 3.3; A 3.16; F 2.04; K 2.59; H 2.84; S 3.12
V9: K 3.66; L 3.73; C 4.31; D 3.94; M 3.37; I 3.65; G 4.14; W 2.31; Y 3.21; N 3.39; Q 3.74; T 3.73; F 2.92; P 3.84; S 3.79; R 3.63; A 3.47; E 3.87; H 4.71
A12: C 3.35; G 4.34; L 3.06; E 3.81; D 4.27; I 2.95; K 3.36; N 3.37; F 2.48; M 3.24; H 3.22
N11: L 2.53; G 3.37; M 3.36; D 3.64; C 3.21; R 3.47; A 2.91; I 2.22; P 3.25; K 3.54; F 2.48; Y 2.68; S 3.08; T 3.21; V 3.12; E 3.46; W 1.89; H 3.82; Q 3.47
N10: S 3.24; K 3.1; E 3.69; T 3.03; H 3.94; V 2.92; R 2.99; A 3.6; Y 1.95; W 2.37; C 3.75; M 2.98; I 3.08; D 3.9; L 3.31; P 3.33; Q 3.52; F 2.82; G 3.74
R8: N 3.94; A 3.78; V 3.34; P 3.37; I 3.94; K 3.46; Y 2.63; W 1.91; E 2.86; G 3.97; M 3.37; L 3.39; T 3.1; Q 3.59; F 2.35; C 3.66; S 3.49; D 3.43; H 4.23
K3: H 2.9; M 2.29; I 2.7; R 2.57; Y 2.61; C 4.57; G 2.73; Q 2.27; N 2.69; A 2.58; D 3.47; L 2.57; V 2.92; E 3.83; W 1.78; S 2.01; F 1.92; T 2.45; P 2.22
C5: T 2.25; F 2.72; H 2.3; W 2.55; D 3.19; L 2.4; Y 2.25; A 2.53; M 2.46; E 2.82; P 1.77; Q 2.25; K 2.13; V 2.59; I 2.42; N 2.61; S 2.56; R 2.36; G 2.52
H2: E 4.62; A 2.61; T 3; P 3.37; Q 3.1; M 3.45; K 4.17; V 1.96; N 4.18; W 2.62; D 4.8; L 3.58; C 5.31; I 2.08; Y 3.69; S 3.1; F 3.27; G 3.6; R 3.65
S7: T 3.28; Y 2.12; E 3.54; G 3.47; I 3.54; L 3.44; F 2.16; D 3.23; R 3.97; P 2.87; H 4.18; N 2.83; Q 3.23; C 4.27; M 3.54; A 3.71; K 4.04; W 2.76; V 3.72
